# Measured values reported in US20030022315A1.
# T1: full-length class E TetR (Escherichia coli) (UniProt P21337)
# T1 sequence: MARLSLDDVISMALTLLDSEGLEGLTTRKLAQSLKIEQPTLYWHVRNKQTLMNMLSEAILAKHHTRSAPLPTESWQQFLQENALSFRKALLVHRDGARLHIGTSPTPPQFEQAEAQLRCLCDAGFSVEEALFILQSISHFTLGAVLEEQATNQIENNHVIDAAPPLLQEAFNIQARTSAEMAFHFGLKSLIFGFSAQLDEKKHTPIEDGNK
# T2: full-length class C TetR (Escherichia coli) (UniProt P03039)
# T2 sequence: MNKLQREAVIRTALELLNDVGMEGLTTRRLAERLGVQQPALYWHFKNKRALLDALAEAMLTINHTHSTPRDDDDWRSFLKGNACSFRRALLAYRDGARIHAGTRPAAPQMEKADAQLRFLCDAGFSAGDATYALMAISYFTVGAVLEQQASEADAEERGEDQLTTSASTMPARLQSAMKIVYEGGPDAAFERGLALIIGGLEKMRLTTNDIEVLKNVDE
# B1: deletion mutant of the Tn10-encoded class B TetR (Δ26-53) (protein)
# chain: MSRLDKSKVINSALELLNEVGIEGLALAIEMLDRHHTHFCPLEGESWQDFLRNKAKSFRCALLSHRDGAKVHLGTRPTEKQYETLENQLAFLCQQGFSLENALYALSAVGHFTLGCVLEDQEHQVAKEERETPTTDSMPPLLRQAIELFDHQGAEPAFLFGLELIICGLEKQLKCESGS
# Assays:
# [1] = target: full-length class D TetR (Escherichia coli) (UniProt P0ACT4)
# [2] = target: full-length class B TetR (wild-type, Tn10-encoded) (Tn10-encoded (organism not stated))
# [3] = target: T1, full-length class E TetR (Escherichia coli)
# [4] = target: T2, full-length class C TetR (Escherichia coli)
binder,measurement,setting,value
B1,Factor of Transdominance (β-galactosidase activity with against without the deletion mutant),[1],1.1 fold
same,Factor of Transdominance (β-galactosidase activity with against without the deletion mutant),[2],22 fold
same,Factor of Transdominance (β-galactosidase activity with against without the deletion mutant),[3],1 fold
same,Factor of Transdominance (β-galactosidase activity with against without the deletion mutant),[4],2 fold
